Target: T1, Hsp42, yeast small heat shock protein (yeast, UniProt Q12329 1-375)
T1 construct: Hsp42, small heat shock protein of the yeast cytosol; also called sHsp; source: purified as described [28]; copies: 24
Test: co-sedimentation; preassembled NM fibers (5 µM NM monomer) incubated 60 min at 25°C with Hsp26 or Hsp42 (10 µM); fibers recovered at 16,000 g for 30 min; pellet with or without a wash step, SDS-PAGE, Coomassie
Settings: both partners purified

T1 sequence (Q12329 whole entry): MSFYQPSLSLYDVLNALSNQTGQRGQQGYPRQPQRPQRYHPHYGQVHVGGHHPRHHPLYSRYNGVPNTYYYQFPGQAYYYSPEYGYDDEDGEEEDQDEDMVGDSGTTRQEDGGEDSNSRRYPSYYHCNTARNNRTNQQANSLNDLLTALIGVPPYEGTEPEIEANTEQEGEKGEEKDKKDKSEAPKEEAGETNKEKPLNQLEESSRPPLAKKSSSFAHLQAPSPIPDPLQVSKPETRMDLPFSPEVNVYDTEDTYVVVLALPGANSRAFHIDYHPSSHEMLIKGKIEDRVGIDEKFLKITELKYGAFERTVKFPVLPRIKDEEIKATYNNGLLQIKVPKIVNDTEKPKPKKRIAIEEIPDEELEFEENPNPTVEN

B1: NM, the prion domain (N and M domains) of the yeast translation termination factor Sup35, untagged (domain or fragment, UniProt P05453 1-253, looked up)
chain: MSDSNQGNNQQNYQQYSQNGNQQQGNNRYQGYQAYNAQAQPAGGYYQNYQGYSGYQQGGYQQYNPDAGYQQQYNPQGGYQQYNPQGGYQQQFNPQGGRGNYKNFNYNNNLQGYQAGFQPQSQGMSLNDFQKQQKQAAPKPKKTLKLVSSSGIKLANATKKVGTKPAESDKKEEEKSAETKEPTKEPTKVEEPVKKEEKPVQTEEKTEEKSELPKVEDLKISESTHNTNNANVTSADALIKEQEEEVDDEVVND
notes: Sup35, yeast translation termination factor; N domain (amino acids 1-123) plus M domain (amino acids 124-253) = NM; One construct used in several states: soluble NM, molten oligomers and preassembled amyloid fibers (assembled at 25°C with agitation in assembly buffer); With Hsp26 and Hsp42 it stood as preassembled fibers; also called untagged NM; NM fibers; source: purified as described [48]
  binding result: binds
